Measured values: paper PMC2192373

Target: Taxol-stabilized microtubules prepared from pure bovine tubulin (bovine) (UniProt Q6B856)
Test: co-sedimentation

GST-DmINCENP (full-length Drosophila inner centromere protein fused to GST) (natural protein)
percent of the added protein that cosediments: 64%
